Changes are numbered by the printed parent chain.

What all share (settings): both partners purified
Assay [1] concerns the target T1, serum-derived C1q (human, UniProt P02745 23-245); P02746 28-253; P02747 29-245, hydroxyprolines in the collagen-like region (shown as O in Figure 8A) | hydroxyprolines in the collagen-like region (shown as O in Figure 8A) | hydroxyprolines in the collagen-like region (shown as O …).
T1 construct: Complement C1q, A chain; Complement C1q, B chain; Complement C1q, C chain; 18 polypeptide chains, six A-B-C heterotrimers, 460 kDa; also called sC1q; source: purified from human serum; copies: 6 + 6 + 6
The assay is described as follows: SPR; LAIR-1 Ig-like domain injected at increasing concentrations (4-128, 4-256 or 3.125-400 µM) over immobilized C1q, rC1q variants, C1qCLR_nc2 variants or C1qstem_nc2 (CM5, amine coupling); 25 °C; 50 mM Tris, 150 mM NaCl, 2 mM CaCl2, 0.05% surfactant P20, pH 7.5; KD from Req versus concentration, steady-state model. In general terms: SPR reads the build-up and loss of mass on a sensor chip optically.

The target in assay [2] is T2, recombinant wild-type C1q (UniProt P02745 23-245; P02746 28-253; P02747 29-245).
T2 construct: Complement C1q, A chain; Complement C1q, B chain; Complement C1q, C chain; also called rC1q WT; source: recombinant, produced and purified as reported in Bally et al. [20]; copies: + +
The assay is described as above.

Assay [3] deals with T3, recombinant C1q mutant with an alanine substitution of LysA59, LysB61 and LysC58 (UniProt P02745 23-245; P02746 28-253; P02747 29-245, alanine substitution of LysA59 | alanine substitution of LysB61 | alanine …).
T3 construct: Complement C1q, A chain; Complement C1q, B chain; Complement C1q, C chain; also called rC1q ABC; source: recombinant, produced and purified as reported in Bally et al. [20]; copies: + +
Described as above.

The target in assay [4] is T1, serum-derived C1q. The assay is described as follows: SPR; LAIR-1 Ig-like domain (WT or mutant) injected at 10 µM over C1q or C1q fragment amine-coupled to a CM5 chip (sC1q 14,000 RU, sCLR 6000 RU, sGR 1500 RU); 25 °C; 50 mM Tris, 150 mM NaCl, 2 mM CaCl2, 0.05% surfactant P20, pH 7.5; association 180 s; mutants as percentage of the WT response at equilibrium.
Assay [5] addresses T1, serum-derived C1q. The assay is described as follows: SPR; sC1q (1 nM), alone or preincubated with C1r2s2 at increasing molar ratios (1-5; 15 min at 25 °C), injected over immobilized LAIR-1 Ig-like domain (330 RU); 50 mM Tris, 150 mM NaCl, 2 mM CaCl2, 0.05% surfactant P20, pH 7.5; 25 °C; avidity effects.

T1 sequence (P02745 23-245, chain 1 of 3): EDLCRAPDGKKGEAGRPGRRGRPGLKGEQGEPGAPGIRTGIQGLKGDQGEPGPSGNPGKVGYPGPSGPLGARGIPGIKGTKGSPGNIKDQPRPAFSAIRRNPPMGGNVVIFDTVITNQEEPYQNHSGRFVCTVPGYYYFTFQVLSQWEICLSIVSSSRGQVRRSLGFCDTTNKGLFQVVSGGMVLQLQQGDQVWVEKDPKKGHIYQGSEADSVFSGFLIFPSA
T1 sequence (P02746 28-253, chain 2 of 3): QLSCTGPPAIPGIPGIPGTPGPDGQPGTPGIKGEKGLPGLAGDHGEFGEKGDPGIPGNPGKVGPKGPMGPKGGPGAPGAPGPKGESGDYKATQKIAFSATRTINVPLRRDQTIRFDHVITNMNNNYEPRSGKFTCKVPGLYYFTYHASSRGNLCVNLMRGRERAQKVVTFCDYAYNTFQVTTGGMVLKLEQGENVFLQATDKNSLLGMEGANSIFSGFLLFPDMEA
T1 sequence (P02747 29-245, chain 3 of 3): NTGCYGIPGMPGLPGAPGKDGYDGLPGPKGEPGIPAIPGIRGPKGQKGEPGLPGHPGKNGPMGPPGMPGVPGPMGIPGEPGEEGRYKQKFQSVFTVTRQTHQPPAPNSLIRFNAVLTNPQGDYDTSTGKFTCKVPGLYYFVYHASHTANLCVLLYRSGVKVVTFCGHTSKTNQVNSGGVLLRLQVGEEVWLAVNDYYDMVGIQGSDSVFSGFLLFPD
T3 sequence (P02745 other isoform, or with tags, fused parts or gaps with the stated changes, chain 1 of 3): as the sequence (P02745 23-245, chain 1 of 3) above, with K59A counted along it
T3 sequence (P02746 other isoform, or with tags, fused parts or gaps with the stated changes, chain 2 of 3): as the sequence (P02746 28-253, chain 2 of 3) above, with K61A counted along it
T3 sequence (P02747 other isoform, or with tags, fused parts or gaps with the stated changes, chain 3 of 3): as the sequence (P02747 29-245, chain 3 of 3) above, with K58A counted along it
T2 sequence (P02745 23-245, chain 1 of 3): as the sequence (P02745 23-245, chain 1 of 3) above
T2 sequence (P02746 28-253, chain 2 of 3): as the sequence (P02746 28-253, chain 2 of 3) above
T2 sequence (P02747 29-245, chain 3 of 3): as the sequence (P02747 29-245, chain 3 of 3) above

B1: LAIR-1 Ig-like domain, wild type (domain or fragment, human, UniProt Q6GTX8 22-122, looked up)
chain: QEEDLPRPSISAEPGTVIPLGSHVTFVCRGPVGVQTFRLERDSRSTYNDTEDVSQASPSESEARFRIDSVREGNAGLYRCIYYKPPKWSEQSDYLELLVKE
notes: Leukocyte associated immunoglobulin-like receptor 1 (LAIR-1; CD305), C2-type Ig-like domain, residues 22 to 122; pET28a construct; intact disulfide bond by ESI-MS; also called LAIR-1 WT; soluble LAIR-1 Ig-like domain
Consider B1, for which the Kd amounted to 112 µM in assay [1], 99.5 µM in assay [2] and 132 µM in assay [3].

B2: LAIR-1 Ig-like domain E72K (domain or fragment, human, UniProt Q6GTX8 22-122, looked up)
chain: B1 chain with E51K
notes: LAIR-1 (CD305), C2-type Ig-like domain, residues 22 to 122
As to B2, the binding result in assay [4] is listed as “binds”.

B3: LAIR-1 Ig-like domain I102L (domain or fragment, human, UniProt Q6GTX8 22-122, looked up)
chain: B1 chain with I81L
notes: as for B2
As to B3, in assay [4], the binding result was “binds”.

B4: LAIR-1 Ig-like domain E111K (domain or fragment, human, UniProt Q6GTX8 22-122, looked up)
chain: B1 chain with E90K
notes: as for B2
With B4, the binding result in assay [4] is listed as “binds”.

B5: LAIR-1 Ig-like domain P107R (domain or fragment, human, UniProt Q6GTX8 22-122, looked up)
chain: B1 chain with P86R
notes: as for B2
B5: the binding result in assay [4] was “binds”.

B6: recombinant C1r2s2 tetramer (C1s, C1rS637A) (complex)
chain 1: SIPIPQKLFGEVTSPLFPKPYPNNFETTTVITVPTGYRVKLVFQQFDLEPSEGCFYDYVKISADKKSLGRFCGQLGSPLGNPPGKKEFMSQGNKMLLTFHTDFSNEENGTIMFYKGFLAYYQAVDLDECASRSKSGEEDPQPQCQHLCHNYVGGYFCSCRPGYELQEDTHSCQAECSSELYTEASGYISSLEYPRSYPPDLRCNYSIRVERGLTLHLKFLEPFDIDDHQQVHCPYDQLQIYANGKNIGEFCGKQRPPDLDTSSNAVDLLFFTDESGDSRGWKLRYTTEIIKCPQPKTLDEFTIIQNLQPQYQFRDYFIATCKQGYQLIEGNQVLHSFTAVCQDDGTWHRAMPRCKIKDCGQPRNLPNGDFRYTTTMGVNTYKARIQYYCHEPYYKMQTRAGSRESEQGVYTCTAQGIWKNEQKGEKIPRCLPVCGKPVNPVEQRQRIIGGQKAKMGNFPWQVFTNIHGRGGGALLGDRWILTAAHTLYPKEHEAQSNASLDVFLGHTNVEELMKLGNHPIRRVSVHPDYRQDESYNFEGDIALLELENSVTLGPNLLPICLPDNDTFYDLGLMGYVSGFGVMEEKIAHDLRFVRLPVANPQACENWLRGKNRMDVFSQNMFCAGHPSLKQDACQGDAGGVFAVRDPNTDRWVATGIVSWGIGCSRGYGFYTKVLNYVDWIKKEMEEED
chain 2: EPTMYGEILSPNYPQAYPSEVEKSWDIEVPEGYGIHLYFTHLDIELSENCAYDSVQIISGDTEEGRLCGQRSSNNPHSPIVEEFQVPYNKLQVIFKSDFSNEERFTGFAAYYVATDINECTDFVDVPCSHFCNNFIGGYFCSCPPEYFLHDDMKNCGVNCSGDVFTALIGEIASPNYPKPYPENSRCEYQIRLEKGFQVVVTLRREDFDVEAADSAGNCLDSLVFVAGDRQFGPYCGHGFPGPLNIETKSNALDIIFQTDLTGQKKGWKLRYHGDPMPCPKEDTPNSVWEPAKAKYVFRDVVQITCLDGFEVVEGRVGATSFYSTCQSNGKWSNSKLKCQPVDCGIPESIENGKVEDPESTLFGSVIRYTCEEPYYYMENGGGGEYHCAGNGSWVNEVLGPELPKCVPVCGVPREPFEEKQRIIGGSDADIKNFPWQVFFDNPWAGGALINEYWVLTAAHVVEGNREPTMYVGSTSVQTSRLAKSKMLTPEHVFIHPGWKLLEVPEGRTNFDNDIALVRLKDPVKMGPTVSPICLPGTSSDYNLMDGDLGLISGWGRTEKRDRAVRLKAARLPVAPLRKCKEVKVEKPTADAEAYVFTPNMICAGGEKGMDSCKGDSGGAFAVQDPNDKTKFYAAGLVSWGPQCGTYGLYTRVKNYVDWIMKTMQENSTPRED
notes: Complement C1r protease; Complement C1s protease; also called C1r2s2 proteases tetramer; source: recombinant, purified according to published procedures [42]; copies: 2 + 2
On to B6, for which the binding result in assay [5] is “binds”.

As usually defined, the Kd is a measure of binding affinity in units of concentration.

(Values after PMC8151509 (International Journal of Molecular Sciences, 2021).)
